# Experimental data taken from publication PMC5109294, “NANOG reprograms prostate cancer cells to castration resistance via dynamically repressing and engaging the AR/FOXA1 signaling axis”.
# T1: FOXA1 (Homo sapiens, UniProt P55317 1-472)
# T1 sequence: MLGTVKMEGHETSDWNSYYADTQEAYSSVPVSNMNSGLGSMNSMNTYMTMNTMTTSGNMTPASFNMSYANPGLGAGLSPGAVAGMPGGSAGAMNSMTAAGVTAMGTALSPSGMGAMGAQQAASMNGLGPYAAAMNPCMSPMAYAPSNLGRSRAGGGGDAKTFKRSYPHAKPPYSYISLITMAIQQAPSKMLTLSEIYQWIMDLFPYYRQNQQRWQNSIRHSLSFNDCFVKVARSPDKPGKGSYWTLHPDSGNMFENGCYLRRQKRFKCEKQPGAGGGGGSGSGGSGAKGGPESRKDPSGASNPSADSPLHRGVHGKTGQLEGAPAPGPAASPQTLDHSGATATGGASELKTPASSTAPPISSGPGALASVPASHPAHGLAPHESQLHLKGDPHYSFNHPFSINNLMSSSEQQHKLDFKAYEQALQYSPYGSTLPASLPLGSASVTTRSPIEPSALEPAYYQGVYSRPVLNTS
# B1: FOXA1 motif probe, UBE2C gene promoter (dsDNA)
# DNA 1: CTTAGTGTTTATTTCAAGCT
# DNA 2: AGCTTGAAATAAACACTAAG
# Target: T1, FOXA1
# Assay: EMSA; 100 ng protein; competed by 300x unlabeled probe; weaker than NP8 at 1:1; LightShift Chemiluminescent EMSA kit; probe annealed in 20 mM Tris-HCl pH 7.5, 150 mM NaCl; 4-20% native gel, 0.5X TBE; binding buffer and temperature not stated
# Details: protein: recombinant; tags: GST (pGEX-6p-1); label: biotin (both strands); blunt; some single-stranded primer remains after annealing
binder,measurement,value
B1,binding result,binds
